Starred links: 1 amine or outer side, 2 acyl side, 3 side chain; linkers in the order of their positions; H or OH if unused. Positions of bridges follow the written chain, without caps; N, C: chain ends. Non-standard residues stand in square brackets, D forms with d. Primed or numbered codes have the meaning given here. PyrS2(3) = (S)-3-amino-1-((pent-4-en-1-yloxy)carbonyl)pyrrolidine-3-carboxylic acid, stapling residue, C=CCCCOC(=O)N1CC[C@@](N[*:1])(C(=O)[*:2])C1; PyrS2″ = (S)-3-amino-1-((pent-4-en-1-yloxy)carbonyl)pyrrolidine-3-carboxylic acid (stapling residue), C=CCCCOC(=O)N1CC[C@@](N[*:1])(C(=O)[*:2])C1; B5(4) = 2,2-bis(4-pentenyl)glycine = 2-amino-2-(pent-4-en-1-yl)hept-6-enoic acid (stitching residue), C=CCCCC(CCCC=C)(N[*:1])C(=O)[*:2]; B5(5) = 2,2-bis(4-pentenyl)glycine, 2-amino-2-(pent-4-en-1-yl)hept-6-enoic acid (stitching residue), C=CCCCC(CCCC=C)(N[*:1])C(=O)[*:2]; B5(21) = 2-amino-2-(pent-4-en-1-yl)hept-6-enoic acid, bis(4-pentenyl)glycine (stitching residue), C=CCCCC(CCCC=C)(N[*:1])C(=O)[*:2]; B5(12) = 2-amino-2-(pent-4-en-1-yl)hept-6-enoic acid (two olefin side chains), C=CCCCC(CCCC=C)(N[*:1])C(=O)[*:2]; 4TriA = (S)-2-amino-3-(1H-1,2,3-triazol-4-yl)propanoic acid, O=C([C@H](Cc1c[nH]nn1)N[*:1])[*:2]; B5″ = 2,2-bis(4-pentenyl)glycine, stitching residue, C=CCCCC(CCCC=C)(N[*:1])C(=O)[*:2]; Phe(2-Cl) = N[C@@H](Cc1ccccc1Cl)C(=O)O; Bta = N[C@@H](Cc1csc2ccccc12)C(=O)O; αAllylPro = C=CC[C@@]1(C(=O)O)CCCN1; tBuAla = CC(C)(C)C[C@H](N)C(=O)O; 3Thi = N[C@@H](Cc1ccsc1)C(=O)O; S8 = C=CCCCCCC[C@](C)(N)C(=O)O; R5 = C=CCCC[C@@](C)(N)C(=O)O; hSer = N[C@@H](CCO)C(=O)O; Nle = CCCC[C@H](N)C(=O)O; Aib = CC(C)(N)C(=O)O
Columns and labels:
[1] = target: full-length beta-Catenin (Uniprot ID P35222) (Homo sapiens (Human)) (UniProt P35222); assay: fluorescence polarization competition; full-length beta-catenin; competitor 5FAM-TCF4(10-53) probe
Target sequence in this assay (P35222 whole entry, one chain of several): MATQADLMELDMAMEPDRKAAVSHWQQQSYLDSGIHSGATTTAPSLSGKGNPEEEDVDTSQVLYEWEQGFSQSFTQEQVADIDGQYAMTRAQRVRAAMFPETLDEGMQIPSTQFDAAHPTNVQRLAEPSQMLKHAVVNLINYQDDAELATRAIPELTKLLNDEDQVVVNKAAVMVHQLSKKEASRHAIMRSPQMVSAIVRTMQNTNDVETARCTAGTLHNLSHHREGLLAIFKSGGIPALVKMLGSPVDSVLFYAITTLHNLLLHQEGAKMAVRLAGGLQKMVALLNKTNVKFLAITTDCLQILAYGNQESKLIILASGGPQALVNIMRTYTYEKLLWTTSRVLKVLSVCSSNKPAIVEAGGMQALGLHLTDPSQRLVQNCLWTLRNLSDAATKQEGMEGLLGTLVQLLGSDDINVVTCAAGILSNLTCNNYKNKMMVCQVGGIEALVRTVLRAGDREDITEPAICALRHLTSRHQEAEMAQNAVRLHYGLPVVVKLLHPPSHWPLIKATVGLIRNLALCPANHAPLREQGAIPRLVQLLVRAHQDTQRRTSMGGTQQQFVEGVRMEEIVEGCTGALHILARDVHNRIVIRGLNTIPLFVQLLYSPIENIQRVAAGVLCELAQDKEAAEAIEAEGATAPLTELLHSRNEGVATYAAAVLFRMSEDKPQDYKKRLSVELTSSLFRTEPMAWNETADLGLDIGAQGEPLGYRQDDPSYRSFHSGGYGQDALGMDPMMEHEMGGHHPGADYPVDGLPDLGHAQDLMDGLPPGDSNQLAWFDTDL

[2] = target: full-length beta-Catenin (Uniprot ID P35222) (Homo sapiens (Human)) (UniProt P35222); assay: fluorescence polarization competition, displacement of 5FAM-TCF4 10-53 from full-length beta-catenin
Target sequence in this assay (P35222 2-781 limits assumed): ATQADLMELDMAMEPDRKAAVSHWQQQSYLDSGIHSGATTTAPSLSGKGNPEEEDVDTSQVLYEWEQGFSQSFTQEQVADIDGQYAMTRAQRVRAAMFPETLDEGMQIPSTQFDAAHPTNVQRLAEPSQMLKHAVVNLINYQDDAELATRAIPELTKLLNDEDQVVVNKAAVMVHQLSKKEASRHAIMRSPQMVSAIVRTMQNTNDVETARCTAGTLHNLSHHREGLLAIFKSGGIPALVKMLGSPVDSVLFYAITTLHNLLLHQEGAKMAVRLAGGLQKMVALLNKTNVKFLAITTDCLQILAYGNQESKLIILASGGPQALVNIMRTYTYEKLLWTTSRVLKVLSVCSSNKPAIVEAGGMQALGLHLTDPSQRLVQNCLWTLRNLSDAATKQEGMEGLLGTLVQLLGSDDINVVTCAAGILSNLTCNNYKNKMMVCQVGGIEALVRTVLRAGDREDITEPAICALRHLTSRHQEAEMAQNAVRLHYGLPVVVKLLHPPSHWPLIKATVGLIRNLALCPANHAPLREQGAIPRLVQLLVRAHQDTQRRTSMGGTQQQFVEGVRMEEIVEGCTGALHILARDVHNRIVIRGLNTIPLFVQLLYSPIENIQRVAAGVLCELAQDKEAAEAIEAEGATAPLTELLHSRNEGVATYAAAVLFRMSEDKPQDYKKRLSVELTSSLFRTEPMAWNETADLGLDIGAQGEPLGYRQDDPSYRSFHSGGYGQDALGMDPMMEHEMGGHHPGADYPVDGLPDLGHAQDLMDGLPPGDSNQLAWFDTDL

[3] = target: full-length beta-Catenin (Uniprot ID P35222) (Homo sapiens (Human)) (UniProt P35222); assay: fluorescence polarization competition; 5FAM-TCF4(10-53) probe displaced from full-length beta-catenin
Target sequence in this assay (P35222 2-781 limits assumed): as above

[4] = target: beta-catenin (Homo sapiens (Human)) (UniProt P35222); assay: fluorescence polarization competition; full-length beta-catenin with 5FAM-TCF4(10-53) probe as competitor
Sequence of beta-catenin (Homo sapiens (Human)) (P35222 whole entry): as the sequence (P35222 whole entry, one chain of several) above

EC50 [1] [nM] | IC50 [2] [nM] | IC50 [3] [nM] | EC50 [4] [nM] | Binder
78.5 | 78.5 |  |  | Ac-[αAllylPro]D[tBuAla][B5(4)]DDAAFL[S8][3Thi][Bta][4TriA]-NH2 (staple 1-4, 4-11) [I-1193]
226 | 297 |  |  | Ac-PD[tBuAla][R5]DDAAFL[PyrS2(3)][3Thi][Bta]Q-NH2 (staple 4-11) [I-1181]
87 | 87 |  |  | Ac-[αAllylPro]D[tBuAla][B5(21)]DD[Aib][Aib]FL[PyrS2″][3Thi][Bta]Q-NH2 (staple 1-4, 4-11; also: later eluting HPLC peak (staple isomer composition)) [I-1180]
 |  | 124 | 124 | Ac-[αAllylPro]D[Nle][B5(5)]DDAAFL[PyrS2″][Phe(2-Cl)][Bta]L-NH2 (staple 1-4, 4-11; also: staple isomer, earlier eluting HPLC peak) [I-1420]
29.5 | 29.5 |  |  | Ac-[αAllylPro]D[tBuAla][B5″]DDAAFL[S8][3Thi][Bta]H-NH2 (staple 1-4, 4-11) [I-1195]
 |  | 84 | 84 | Ac-[αAllylPro]DS[B5(12)]DDAAFL[PyrS2″][3Thi][Bta]L-NH2 (staple 1-4, 4-11) [I-1414]
144 | 144 |  |  | Ac-PD[tBuAla][R5]DDAAFN[PyrS2″][3Thi][Bta]Q-NH2 (staple 4-11) [I-1182]
94.5 | 94.5 |  |  | Ac-[αAllylPro]D[tBuAla][B5(4)]DDAAFL[S8][Phe(2-Cl)][Bta]S-NH2 (staple 1-4, 4-11) [I-1189]

More lines, now with the values behind:

Binder | EC50 [1] [nM] | IC50 [2] [nM] | IC50 [3] [nM] | EC50 [4] [nM]
Ac-[αAllylPro]D[tBuAla][B5(4)]DDAAFL[S8][Phe(2-Cl)][Bta][hSer]-NH2 (staple 1-4, 4-11) [I-1196] | 85 | 85 |  | 
Ac-[αAllylPro]D[tBuAla][B5(4)]DDAAFL[S8][Phe(2-Cl)][Bta]H-NH2 (staple 1-4, 4-11) [I-1194] | 66.5 | 66.5 |  | 
Ac-[αAllylPro]D[tBuAla][B5(4)]DDAAFL[S8][Phe(2-Cl)][Bta][4TriA]-NH2 (staple 1-4, 4-11) [I-1192] | 81.5 | 81.5 |  | 
Ac-[αAllylPro]DT[B5(5)]DDAAFL[PyrS2″][3Thi][Bta]L-NH2 (staple 1-4, 4-11) [I-1415] |  |  | 72 | 72
Ac-[αAllylPro]D[tBuAla][B5(5)]DDAAFL[PyrS2″][Phe(2-Cl)][Bta]L-NH2 (staple 1-4, 4-11; also: staple isomer, earlier eluting HPLC peak) [I-1416] |  |  | 57 | 57
Ac-[αAllylPro]D[tBuAla][B5(4)]DDAAFL[S8][3Thi][Bta]T-NH2 (staple 1-4, 4-11) [I-1191] | 38.5 | 38.5 |  | 
Ac-[αAllylPro]D[tBuAla][B5(5)]DDAAFL[PyrS2″][Phe(2-Cl)][Bta]L-NH2 (staple 1-4, 4-11) [I-1417] |  |  | 198 | 198

Source: US20240116985A1, “STAPLED PEPTIDES AND METHODS THEREOF” (priority 2020, published 2024)
